Reference: paper PMC11154964, “The Light Chain Allosterically Enhances the Protease Activity of Murine Urokinase-Type Plasminogen Activator” (Biochemistry, 2024)
Ends that are not written are not given here.

Experiments:
[1] = molecular target: protease domain (heavy chain) of murine urokinase-type plasminogen activator (muPA WT, after plasmin cleavage) (mouse (murine)) (UniProt P06869)
[2] = molecular target: T1, protease domain (heavy chain) of murine urokinase-type plasminogen activator (muPA WT, after plasmin cleavage) (mouse (murine), UniProt P06869 180-433, C281 (122CT) disulfide-bonded to C149 (1CT) of the light chain); assay: HDX-MS; two-chain muPA (light chain disulfide-bonded to the protease domain; WT 20 μM, F(−2)CTA 8.5 μM, K4CTG 13 μM) compared with No-Light-Chain muPA (10 μM); PBS pH 7.4, 22 °C, deuteration 0, 30, 60, 120, 600 s; conditions: both partners purified
T1 construct: Stood in the assay as one of the two chains of muPA WT or of its light-chain mutants; also called serine protease domain

[3] = molecular target: T1, protease domain (heavy chain) of murine …; assay: cell-based or functional assay

T1 sequence (P06869 180-433): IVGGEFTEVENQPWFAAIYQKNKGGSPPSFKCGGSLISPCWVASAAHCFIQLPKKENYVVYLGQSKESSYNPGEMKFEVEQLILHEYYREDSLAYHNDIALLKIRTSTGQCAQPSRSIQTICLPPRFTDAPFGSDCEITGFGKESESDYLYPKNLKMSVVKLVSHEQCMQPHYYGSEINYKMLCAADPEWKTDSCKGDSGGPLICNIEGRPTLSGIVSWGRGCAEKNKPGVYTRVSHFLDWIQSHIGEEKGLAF
Chain of protease domain (heavy chain) of murine urokinase-type plasminogen activator (muPA WT, after plasmin cleavage) (mouse (murine)) (P06869 180-433): as above

## light chain of muPA with the mutation F(−2CT)A (from UniProt P06869 153-179) (domain or fragment)
[1]
  kcat of the amidolytic activity (chromogenic substrate S2444) of two-chain muPA F(−2CT)A: 12 s^–1

B1: disordered light chain of murine urokinase-type plasminogen activator (muPA WT, after plasmin cleavage) (domain or fragment, mouse (murine), UniProt P06869 153-179, looked up)
chain: SLSKKPSSSVDQQGFQCGQKALRPRFK
modifications: not fully specified; also: disulfide to Cys281 of the protease domain chain, disulfide at 17, other end not in the chain
notes: Stood in the assay as one of the two chains of muPA WT (133-413), tethered to m2 by a disulfide bond; The construct has an N-terminal 6xHis-tag and a TEV protease cleavage site; also called disordered linker; light chain of muPA WT
[2]
  binding result: binds

B2: light chain of muPA with the mutation K4CTG (domain or fragment, mouse (murine), UniProt P06869 153-179, looked up)
chain: SLSKKPSSSVDQQGFQCGQGALRPRFK
modifications: not fully specified; also: disulfide to Cys281 of the protease domain chain, disulfide at 17, other end not in the chain
[3]
  kcat of the amidolytic activity (chromogenic substrate S2444) of two-chain muPA K4CTG: 22 s^–1
